Assay results: patent publication US20200062844A1 (Regeneron, published 2020)

Assays:
[1] = molecular target: T1, human CD3 expressed in Jurkat cells (human, UniProt P07766 23-207; P04234 22-171; P20963 22-164; P09693 23-182); test: cell-based or functional assay
[2] = molecular target: T2, human FcεR1α expressed on cells (human, UniProt P12319 26-257); test: cell-based or functional assay
T2 sequence (looked up): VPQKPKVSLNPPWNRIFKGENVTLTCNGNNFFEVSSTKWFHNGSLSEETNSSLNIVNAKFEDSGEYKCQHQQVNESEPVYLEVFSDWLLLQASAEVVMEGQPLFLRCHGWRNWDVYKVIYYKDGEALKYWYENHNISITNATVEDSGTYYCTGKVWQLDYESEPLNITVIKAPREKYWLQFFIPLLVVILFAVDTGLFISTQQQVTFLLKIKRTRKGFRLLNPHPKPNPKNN

[3] = molecular target: T2, human FcεR1α expressed on cells; test: cell-based or functional assay; remark: listed apart in the source
[4] = molecular target: T1, human CD3 expressed in Jurkat cells; test: flow cytometry, 70 nM antibody on Jurkat/NFAT-luc cells, No IgE
Description: (§1) For flow cytometry analysis, HEK293, HEK293/hFcεR1α/hFcεR1β/hFcεR1γ and HEK293/mf FcεR1α/hFcεR1β/hFcεR1γ cells were collected after dissociation using Enzyme Free Dissociation Buffer (Millipore Cat# S-004), and the cells were pre-incubated with or without 70 nM human IgE, for 30 minutes on ice in FACS buffer (PBS, without Ca⁺⁺ and Mg⁺⁺, (Irvine Scientific, Cat#9240) containing 2% FBS). Jurkat/NFAT-luc cells were also collected. The antibodies at the concentration of 70 nM were then added to 1×10⁶ cells/well of each cell type at 4° C. for 30 minutes. […] Cells were fixed using BD CytoFix™ (Becton Dickinson, Cat. #554655) and analyzed on Accuri™ C6 (BD) or CytoFLEX Flow cytometer (Beckman Coulter). Unstained and secondary antibody alone controls were also tested for all cell lines and a sample was evaluated for viability using the Far Red Fluo viability dye (Thermo Fisher, Cat#L10120) according to the manufacturer's protocol. The results were analyzed using FlowJo software (version 10.0.8, FlowJo) to determine the geometric means of fluorescence for viable cells and the binding ratio was calculated with the mean fluorescence intensity (MFI) of the experimental condition normalized by the MFI of the unstained respective cells.

[5] = molecular target: T2, human FcεR1α expressed on cells; test: flow cytometry, 70 nM antibody on HEK293/hFcεR1α/hFcεR1β/hFcεR1γ cells, No IgE
Description: as §1

[6] = molecular target: T3, monkey (cynomolgus) FcεR1α expressed on cells (cynomolgus); test: flow cytometry, 70 nM antibody on HEK293/mfFcεR1α/hFcεR1β/hFcεR1γ cells, No IgE
T3 construct: range 4-260; On HEK293 cells, co-expressed with human FcεR1β and FcεR1γ; also called mfFcεR1α; HEK293/mfFcεR1α/hFcεR1β/hFcεR1γ cells
Description: as §1

hFcεR1α.MMH [7] = molecular target: T4, hFcεR1α.MMH (human); test: SPR (Biacore 8k), antibody captured on anti-human Fc, hFcεR1α.MMH injected, 25°C
T4 construct: also called ectodomain of human FcεR1α with C-term myc-myc-6×His tag
T4 chain: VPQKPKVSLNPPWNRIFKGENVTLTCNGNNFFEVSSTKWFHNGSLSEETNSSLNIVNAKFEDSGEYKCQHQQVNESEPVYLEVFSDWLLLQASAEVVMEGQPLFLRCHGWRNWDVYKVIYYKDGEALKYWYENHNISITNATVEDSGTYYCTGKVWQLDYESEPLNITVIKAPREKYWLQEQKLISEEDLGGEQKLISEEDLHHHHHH
Description: (§2) Equilibrium dissociation constants (KD) for human or cynomolgus FcεR1α ectodomain binding to purified anti-FcεR1α monoclonal antibodies (mAbs) and CD3×FcεR1α bispecific antibodies (bsAbs) were determined using a real-time surface plasmon resonance biosensor (SPR-Biacore), Biacore 8k. All binding studies were performed in 10 mM HEPES, 150 mM NaCl, 3 mM EDTA, and 0.05% v/v surfactant Tween-20, pH 7.4 (HBS-ET) running buffer at 25° C. and 37° C.
(§3) The Biacore CM4 sensor surface was first derivatized by amine coupling with a monoclonal mouse anti-human Fc antibody to capture approximately 500-900 RUs anti-FcεR1α monoclonal antibodies or anti-CD3×FcεR1α bispecific monoclonal antibodies. 1 RU (response unit) represents 1 pg of protein per mm², as defined by the manufacturer. The ectodomain of human and cynomolgus FcεR1α reagents were expressed with a C-term myc-myc-6×His tag-hFcεR1α.MMH (SEQ ID NO: 57) and mfFcεR1α.MMH (SEQ ID NO: 58). Different concentrations of FcεR1α reagents were prepared in HBS-ET running buffer (600 nM-7.4 nM; serially diluted by 3-fold) and injected over anti-human Fc captured anti-FcεR1α monoclonal antibodies or anti-CD3×FcεR1α bispecific monoclonal antibodies surfaces for 1 minute at a flow rate of 30 μL/minute. The dissociation of bound FcεR1α reagents was monitored for 4 minutes in HBS-ET running buffer. Association (kₐ) and dissociation (kd) rate constants were determined by fitting the real-time binding sensorgrams to a 1:1 binding model with mass transport limitation using Biacore 8k evaluation software. Binding dissociation equilibrium constants (KD) and dissociative half-lives (t½) were calculated from the kinetic rate constants as: […]

hFcεR1α.MMH [8] = molecular target: T4, hFcεR1α.MMH; test: SPR (Biacore 8k), antibody captured on anti-human Fc, hFcεR1α.MMH injected, 37°C
Description: as §2, §3

mfFcεR1α.MMH [9] = molecular target: T5, mfFcεR1α.MMH (cynomolgus (Macaca fascicularis)); test: SPR (Biacore 8k), antibody captured on anti-human Fc, mfFcεR1α.MMH injected, 25°C
T5 construct: also called mfFceR1a.MMH; ectodomain of cynomolgus FcεR1α with C-term myc-myc-6×His tag
T5 chain: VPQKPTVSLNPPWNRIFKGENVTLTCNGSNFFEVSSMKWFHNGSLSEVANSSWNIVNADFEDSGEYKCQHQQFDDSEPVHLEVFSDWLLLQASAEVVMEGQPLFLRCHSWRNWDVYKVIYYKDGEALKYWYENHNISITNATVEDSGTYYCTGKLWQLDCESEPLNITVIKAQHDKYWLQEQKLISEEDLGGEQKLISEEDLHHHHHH
Description: as §2, §3

mfFcεR1α.MMH [10] = molecular target: T5, mfFcεR1α.MMH; test: SPR (Biacore 8k), antibody captured on anti-human Fc, mfFcεR1α.MMH injected, 37°C
Description: as §2, §3

[11] = molecular target: T2, human FcεR1α expressed on cells; test: flow cytometry, 70 nM antibody on HEK293/hFcεR1α/hFcεR1β/hFcεR1γ cells pre-incubated with 70 nM human IgE
Description: as §1

[12] = molecular target: T3, monkey (cynomolgus) FcεR1α expressed on …; test: flow cytometry, 70 nM antibody on HEK293/mfFcεR1α/hFcεR1β/hFcεR1γ cells pre-incubated with 70 nM human IgE
Description: as §1

T1 sequence (P07766 23-207 limits assumed, chain 1 of 4): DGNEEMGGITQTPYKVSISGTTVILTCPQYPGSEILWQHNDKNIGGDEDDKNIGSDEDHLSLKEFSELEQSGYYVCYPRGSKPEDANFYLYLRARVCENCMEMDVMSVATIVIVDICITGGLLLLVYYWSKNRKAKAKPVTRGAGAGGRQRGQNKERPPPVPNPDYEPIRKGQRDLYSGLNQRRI
T1 sequence (P04234 22-171 limits assumed, chain 2 of 4): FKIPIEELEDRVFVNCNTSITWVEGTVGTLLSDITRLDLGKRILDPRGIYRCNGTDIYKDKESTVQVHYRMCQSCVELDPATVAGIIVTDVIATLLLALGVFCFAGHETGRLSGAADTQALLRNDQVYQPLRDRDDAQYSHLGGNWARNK
T1 sequence (P20963 22-164 limits assumed, chain 3 of 4): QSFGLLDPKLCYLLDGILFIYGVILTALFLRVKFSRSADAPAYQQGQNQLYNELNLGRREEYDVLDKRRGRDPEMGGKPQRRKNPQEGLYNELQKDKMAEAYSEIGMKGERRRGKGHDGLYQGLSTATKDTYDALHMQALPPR
T1 sequence (P09693 23-182 limits assumed, chain 4 of 4): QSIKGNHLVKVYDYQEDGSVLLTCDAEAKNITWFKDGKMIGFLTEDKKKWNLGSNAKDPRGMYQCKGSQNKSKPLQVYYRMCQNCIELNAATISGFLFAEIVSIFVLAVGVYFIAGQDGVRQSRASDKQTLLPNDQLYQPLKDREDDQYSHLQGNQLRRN

B1: bsAb24919D (bispecific antibody, human IgG4 S228P, kappa)
heavy 1: QVQLQESGPGLVKPSETLSLTCTVSGDSISDYYWIWIRQPPGKGLEWIGYIYYSGSTNYNPSLKSRVTISVATSKNQFSLKLRSVTAADTAMYYCARRNNWNHVRAFDIWGQGTMVTVSSASTKGPSVFPLAPCSRSTSESTAALGCLVKDYFPEPVTVSWNSGALTSGVHTFPAVLQSSGLYSLSSVVTVPSSSLGTKTYTCNVDHKPSNTKVDKRVESKYGPPCPPCPAPPVAGPSVFLFPPKPKDTLMISRTPEVTCVVVDVSQEDPEVQFNWYVDGVEVHNAKTKPREEQFNSTYRVVSVLTVLHQDWLNGKEYKCKVSNKGLPSSIEKTISKAKGQPREPQVYTLPPSQEEMTKNQVSLTCLVKGFYPSDIAVEWESNGQPENNYKTTPPVLDSDGSFFLYSRLTVDKSRWQEGNVFSCSVMHEALHNHYTQKSLSLSLGK
heavy 2: EVQLVESGGGLVQPGRSLRLSCAASGFTFDDYSMHWVRQAPGKGLEWVSGISWNSGSIGYADSVKGRFTISRDNAKNSLYLQMNSLRAEDTALYYCAKYGSGYGKFYYYGMDVWGQGTTVTVSSASTKGPSVFPLAPCSRSTSESTAALGCLVKDYFPEPVTVSWNSGALTSGVHTFPAVLQSSGLYSLSSVVTVPSSSLGTKTYTCNVDHKPSNTKVDKRVESKYGPPCPPCPAPPVAGPSVFLFPPKPKDTLMISRTPEVTCVVVDVSQEDPEVQFNWYVDGVEVHNAKTKPREEQFNSTYRVVSVLTVLHQDWLNGKEYKCKVSNKGLPSSIEKTISKAKGQPREPQVYTLPPSQEEMTKNQVSLTCLVKGFYPSDIAVEWESNGQPENNYKTTPPVLDSDGSFFLYSRLTVDKSRWQEGNVFSCSVMHEALHNRFTQKSLSLSPGK
light: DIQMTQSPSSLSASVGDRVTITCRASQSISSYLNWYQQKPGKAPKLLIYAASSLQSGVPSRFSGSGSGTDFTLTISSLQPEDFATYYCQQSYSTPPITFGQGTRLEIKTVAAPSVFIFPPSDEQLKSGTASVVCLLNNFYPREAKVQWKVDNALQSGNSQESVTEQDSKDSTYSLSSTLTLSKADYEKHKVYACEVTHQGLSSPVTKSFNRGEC
notes: IgG4 Fc domain; two distinct heavy chains with a common light chain; also called anti-FcεR1α×CD3 bispecific antibody; FcεR1α × hCD3
In the case of B1, the “EC50 [M], NFAT-luciferase in Jurkat/NFAT-luc with HEK293/hFcεR1α/hFcεR1β/hFcεR1γ cells, 10 nM IgE” value [1] is reported as 1.5e-09 M, the “EC50 [M], NFAT-luciferase in Jurkat/NFAT-luc with HEK293/hFcεR1α/hFcεR1β/hFcεR1γ cells, No IgE” value [1] is reported as 3.4e-10 M and the “Fold Activation, Jurkat/NFAT-luc with HEK293/hFcεR1α/hFcεR1β/hFcεR1γ cells, 10 nM IgE” value [1] is reported as 32 fold. For the same binder, the “Fold Activation, Jurkat/NFAT-luc with HEK293/hFcεR1α/hFcεR1β/hFcεR1γ cells, No IgE” value [1] was 32 fold, the “EC80, cleaved caspase 3+ cleaved PARP+ HEK293/hFcεR1α/hFcεR1β/hFcεR1γ target cells with activated CD8+ T cells” value [2] was 0.0346 nM and the “Maximum percent apoptotic cells, HEK293/hFcεR1α/hFcεR1β/hFcεR1γ target cells with activated CD8+ T cells” value [2] was 56%. For the same binder, the “EC50, decrease of primary human basophils within PBMC with activated CD8+ T cells” value [3] was 3.75 nM, the “Maximum percent basophil decrease, PBMC with activated CD8+ T cells” value [3] was 90.6% and the “Binding Ratio (MFI of Treated/MFI of Unstained)” value [4] was 48. The “Binding Ratio (MFI of Treated/MFI of Unstained)” value [5] was 269, the “Binding Ratio (MFI of Treated/MFI of Unstained)” value [6] was 166 and the “600 nM hFcεR1α.MMH Bound (RU)” value (hFcεR1α.MMH [7]) was 72 RU. For the same binder, the Kd (hFcεR1α.MMH [7]) was 152 nM, the koff (hFcεR1α.MMH [7]) was 0.0104 s⁻¹ and the kon (hFcεR1α.MMH [7]) was 68200 M⁻¹ s⁻¹. The t½ (hFcεR1α.MMH [7]) was 66 s, the “600 nM hFcεR1α.MMH Bound (RU)” value (hFcεR1α.MMH [8]) was 43 RU and the Kd (hFcεR1α.MMH [8]) was 801 nM. The koff (hFcεR1α.MMH [8]) was 0.0588 s⁻¹, the kon (hFcεR1α.MMH [8]) was 73500 M⁻¹ s⁻¹ and the t½ (hFcεR1α.MMH [8]) was 12 s. For the same binder, the “600 nM mfFceR1a.MMH Bound (RU)” value (mfFcεR1α.MMH [9]) was 40 RU, the Kd (mfFcεR1α.MMH [9]) was 363 nM and the koff (mfFcεR1α.MMH [9]) was 0.0144 s⁻¹. For the same binder, the kon (mfFcεR1α.MMH [9]) was 39600 M⁻¹ s⁻¹, the t½ (mfFcεR1α.MMH [9]) was 48 s and the “600 nM mfFceR1a.MMH Bound (RU)” value (mfFcεR1α.MMH [10]) was 20 RU. It also gave a Kd (mfFcεR1α.MMH [10]) of 1030 nM, a koff (mfFcεR1α.MMH [10]) of 0.0399 s⁻¹ and a kon (mfFcεR1α.MMH [10]) of 38600 M⁻¹ s⁻¹. The t½ (mfFcεR1α.MMH [10]) was 17.4 s, the “Binding Ratio (MFI of Treated/MFI of Unstained)” value [11] was 277 and the “Binding Ratio (MFI of Treated/MFI of Unstained)” value [12] was 236.
